Laboratory results from paper PMC8155666, “Engineering Promiscuous Alcohol Dehydrogenase Activity of a Reductive Aminase AspRedAm for Selective Reduction of Biobased Furans” (Frontiers in Chemistry, 2021).

B1: AspRedAm (Aspergillus oryzae RIB40) (protein)
chain: MSKHIGIFGLGAMGTALAAKYLEHGYKTSVWNRTTAKAIPLVEQGAKLASTISEGVNANDLIIICLLNNQVVEDALRDALQTLPSKTIVNLTNGTPNQARKLADFVTSHGARYIHGGIMAVPTMIGSPHAVLLYSGESLELFQSIESHLSLLGMSKYLGTDAGSASLHDLALLSGMYGLFSGFLHAVALIKSGQDTSTTATGLLPLLTPWLSAMTGYLSSIAKQIDDGDYATQGSNLGMQLAGVENIIRAGEEQRVSSQMILPIKALIEQAVGEGHGGEDLSALIEYFKVGKNVD

Assays:
[1] = system: T1, O=Cc1ccc(CO)o1; experiment: purified protein; assay type: biochemical, Aspergillus oryzae; settings: 0.2 mM NADH, 100 mM Tris-HCl pH 8, 30°C, 1 μM-5 mM HMF, 37 μg/ml enzyme
T1 construct: recombinant, purified

[2] = substrate: O=Cc1ccc(CO)o1; experiment: purified protein; settings: 0.2 mM NADH, 100 mM Tris-HCl pH 9, 30°C, 1 μM-5 mM HMF, 43 μg/ml enzyme

Molecule	Km [1]	kcat [1]	kcat/Km [1]	Km [2]	kcat [2]	kcat/Km [2]
AspRedAm (Aspergillus oryzae RIB40; N93A)	4.1 ± 0.7 ×10^-3 mM	0.0967 ± 0.0076 s⁻¹	23600 ± 2000 M⁻¹ s⁻¹	–	–	–
B1	–	–	–	1.3 ± 0.2 ×10^-3 mM	0.0175 s⁻¹	13100 M⁻¹ s⁻¹
